From the supplement of paper PMC10065799, “High-throughput profiling of sequence recognition by tyrosine kinases and SH2 domains using bacterial peptide display” (eLife, 2023)

Test system: c-Src
Experiment: phosphorylation enrichment, bacterial display (enrichment ratio); higher = better substrate or ligand; peptides without Tyr show the background
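Wherever SH2 binding enrichment of the phosphorylated peptide, bacterial display is given: peptide library displayed on the E. coli surface as eCPX fusions, selected cells deep-sequenced, score is each peptide's frequency after selection divided by its frequency in the input.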
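Wherever phosphorylation enrichment, bacterial display is given: 11-residue human phosphosite peptides and single-mutation variants displayed on the E. coli surface, counted by deep sequencing, each peptide's frequency after selection divided by its frequency in the unselected input library; frequency after pTyr selection over input frequency; kinase dosed for 20-30% of maximal phosphorylation in three min.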

Sequence	phosphorylation enrichment
DENWFYMRAAS [RPS19_Y54_T55M]	0.384
LSFSEYASVQV [SIRPA_Y496_P491L]	2.14
ANFAKYGNPNE [BCHE_Y505]	0.461
VECRVYAEDPY [PCCA_Y401]	0.75
LQFKNYQQLFD [MAN2A1_Y442]	0.377
FDCGMYSHLQG [LGR4_Y848_YF]	3.25
EHLNRYISDTF [TTLL10_Y446]	0.42
GVSFIYTIDGS [DCX_Y105_R102S_YF]	1.98
SHLLRYLSWTV [CLCNKB_Y93]	0.368
YSQNICIQNRN [PKP2_Y631_Y631C]	0.432
VGSIKYLKREW [KCNMA1_Y885_E884K]	0.38
ITKNPYDPPGR	0.433
YNNYGYGSDGF [HNRNPH3_Y161_N163S]	0.505
GHGEEYPAAGA [NOTCH3_Y2221]	0.377
KAESWYQTKFE [KRT75_Y342_E337K_YF]	0.662
SFPSTYRYERG [INPPL1_Y661_P659S]	0.463
SLQFEYVHYGG [CDC14A_Y591_S589F]	0.465

Sequence	phosphorylation enrichment
FEPWVYSFSFE [PRKDC_Y647_YF]	6.33
TRSFDYMEGGD [FGF7_Y58_YF]	0.446
RRIHSYRRHLW [VHL_Y112_G114R]	0.584
VVQGIYGFHHF [UFSP2_Y285_YF]	7.39
RLLRGHDQSAY [HLA-C_Y137_Y137H]	0.361
IEDPFYGNDSD [ACP1_Y133_YF]	0.75
KKILCYIQGGS [HYDIN_Y4610_N4606K]	0.411
KLMTEYKRRKQ [ARFGEF3_Y2029_K2031R]	0.526
NKHTNYTMEHI [ACTN1_Y708]	0.381
IGKDLYANNVL [ACTA2_Y296_R292G]	0.55
YMLYQYLKQIE [RPAP3_Y569_D564Y]	2.25
NYDLDYDSVQP [MYC_Y16]	1.18
PIFLFYLMDLS [ITGB2_Y131_D128Y_YF]	1.12
PRDSGYSFETI [MAP1B_Y1921_S1917R_YF]	1.31
GDFLSYREFHS [ERBIN_Y1107_YF]	0.423
LERYIYNREEY [HLA-DPB1_Y59_F64Y]	3.15

Target: Grb2 SH2 (UniProt P62993)
Experiment: SH2 binding enrichment of the phosphorylated peptide, bacterial display (enrichment ratio); higher = better substrate or ligand; peptides without Tyr show the background

Sequence	SH2 binding enrichment
VECRVYAEDPY [PCCA_Y401]	0.807
LQFKNYQQLFD [MAN2A1_Y442]	0.76
FDCGMYSHLQG [LGR4_Y848_YF]	0.727
EHLNRYISDTF [TTLL10_Y446]	0.9
GVSFIYTIDGS [DCX_Y105_R102S_YF]	0.88
SHLLRYLSWTV [CLCNKB_Y93]	0.9
YSQNICIQNRN [PKP2_Y631_Y631C]	0.7
YNNYGYGSDGF [HNRNPH3_Y161_N163S]	1.49
GHGEEYPAAGA [NOTCH3_Y2221]	0.888
KAESWYQTKFE [KRT75_Y342_E337K_YF]	0.915
SFPSTYRYERG [INPPL1_Y661_P659S]	0.987
SLQFEYVHYGG [CDC14A_Y591_S589F]	0.686
FEPWVYSFSFE [PRKDC_Y647_YF]	0.736
TRSFDYMEGGD [FGF7_Y58_YF]	1.07
RRIHSYRRHLW [VHL_Y112_G114R]	0.918
RLLRGHDQSAY [HLA-C_Y137_Y137H]	0.959
IEDPFYGNDSD [ACP1_Y133_YF]	0.942
KKILCYIQGGS [HYDIN_Y4610_N4606K]	0.802
NKHTNYTMEHI [ACTN1_Y708]	0.814
IGKDLYANNVL [ACTA2_Y296_R292G]	0.844
NYDLDYDSVQP [MYC_Y16]	0.804
PRDSGYSFETI [MAP1B_Y1921_S1917R_YF]	1.1
GDFLSYREFHS [ERBIN_Y1107_YF]	0.741

More lines, now with the values ahead:

SH2 binding enrichment	Sequence
0.774	DENWFYMRAAS [RPS19_Y54_T55M]
0.934	LSFSEYASVQV [SIRPA_Y496_P491L]
0.784	ANFAKYGNPNE [BCHE_Y505]
1.16	VGSIKYLKREW [KCNMA1_Y885_E884K]
0.868	ITKNPYDPPGR
1.03	VVQGIYGFHHF [UFSP2_Y285_YF]
0.642	KLMTEYKRRKQ [ARFGEF3_Y2029_K2031R]
1.94	YMLYQYLKQIE [RPAP3_Y569_D564Y]
0.61	PIFLFYLMDLS [ITGB2_Y131_D128Y_YF]
1.08	LERYIYNREEY [HLA-DPB1_Y59_F64Y]

Target: SHP2-C SH2
Experiment: as above

Sequence	SH2 binding enrichment
VECRVYAEDPY [PCCA_Y401]	0.658
LQFKNYQQLFD [MAN2A1_Y442]	0.784
FDCGMYSHLQG [LGR4_Y848_YF]	1
EHLNRYISDTF [TTLL10_Y446]	0.652
GVSFIYTIDGS [DCX_Y105_R102S_YF]	0.725
SHLLRYLSWTV [CLCNKB_Y93]	0.724
YSQNICIQNRN [PKP2_Y631_Y631C]	0.619
YNNYGYGSDGF [HNRNPH3_Y161_N163S]	0.658
GHGEEYPAAGA [NOTCH3_Y2221]	0.626
KAESWYQTKFE [KRT75_Y342_E337K_YF]	0.72
SFPSTYRYERG [INPPL1_Y661_P659S]	0.728
SLQFEYVHYGG [CDC14A_Y591_S589F]	0.523
FEPWVYSFSFE [PRKDC_Y647_YF]	0.738
TRSFDYMEGGD [FGF7_Y58_YF]	0.791
RRIHSYRRHLW [VHL_Y112_G114R]	0.678
RLLRGHDQSAY [HLA-C_Y137_Y137H]	0.747
IEDPFYGNDSD [ACP1_Y133_YF]	0.855
KKILCYIQGGS [HYDIN_Y4610_N4606K]	0.495
NKHTNYTMEHI [ACTN1_Y708]	0.603
IGKDLYANNVL [ACTA2_Y296_R292G]	0.574
NYDLDYDSVQP [MYC_Y16]	0.532
PRDSGYSFETI [MAP1B_Y1921_S1917R_YF]	0.742
GDFLSYREFHS [ERBIN_Y1107_YF]	0.639

Next, values leading:

SH2 binding enrichment	Sequence
0.627	DENWFYMRAAS [RPS19_Y54_T55M]
0.783	LSFSEYASVQV [SIRPA_Y496_P491L]
0.6	ANFAKYGNPNE [BCHE_Y505]
0.723	VGSIKYLKREW [KCNMA1_Y885_E884K]
0.622	ITKNPYDPPGR
0.923	VVQGIYGFHHF [UFSP2_Y285_YF]
0.636	KLMTEYKRRKQ [ARFGEF3_Y2029_K2031R]
2.83	YMLYQYLKQIE [RPAP3_Y569_D564Y]
0.874	PIFLFYLMDLS [ITGB2_Y131_D128Y_YF]
0.642	LERYIYNREEY [HLA-DPB1_Y59_F64Y]

Target: c-Src SH2
Experiment: as above

Sequence	SH2 binding enrichment
VECRVYAEDPY [PCCA_Y401]	0.603
LQFKNYQQLFD [MAN2A1_Y442]	1.58
FDCGMYSHLQG [LGR4_Y848_YF]	1.79
EHLNRYISDTF [TTLL10_Y446]	0.462
GVSFIYTIDGS [DCX_Y105_R102S_YF]	0.584
SHLLRYLSWTV [CLCNKB_Y93]	0.553
YSQNICIQNRN [PKP2_Y631_Y631C]	0.56
YNNYGYGSDGF [HNRNPH3_Y161_N163S]	0.969
GHGEEYPAAGA [NOTCH3_Y2221]	0.384
KAESWYQTKFE [KRT75_Y342_E337K_YF]	0.991
SFPSTYRYERG [INPPL1_Y661_P659S]	0.633
SLQFEYVHYGG [CDC14A_Y591_S589F]	0.609
FEPWVYSFSFE [PRKDC_Y647_YF]	0.551
TRSFDYMEGGD [FGF7_Y58_YF]	0.576
RRIHSYRRHLW [VHL_Y112_G114R]	0.536
RLLRGHDQSAY [HLA-C_Y137_Y137H]	0.623
IEDPFYGNDSD [ACP1_Y133_YF]	0.529
KKILCYIQGGS [HYDIN_Y4610_N4606K]	0.459
NKHTNYTMEHI [ACTN1_Y708]	0.458
IGKDLYANNVL [ACTA2_Y296_R292G]	0.535
NYDLDYDSVQP [MYC_Y16]	1.26
PRDSGYSFETI [MAP1B_Y1921_S1917R_YF]	1.5
GDFLSYREFHS [ERBIN_Y1107_YF]	0.49

Results, then the sequence that gave them:

SH2 binding enrichment	Sequence
0.481	DENWFYMRAAS [RPS19_Y54_T55M]
0.671	LSFSEYASVQV [SIRPA_Y496_P491L]
0.382	ANFAKYGNPNE [BCHE_Y505]
0.802	VGSIKYLKREW [KCNMA1_Y885_E884K]
0.513	ITKNPYDPPGR
0.83	VVQGIYGFHHF [UFSP2_Y285_YF]
0.342	KLMTEYKRRKQ [ARFGEF3_Y2029_K2031R]
1.44	YMLYQYLKQIE [RPAP3_Y569_D564Y]
0.567	PIFLFYLMDLS [ITGB2_Y131_D128Y_YF]
1.8	LERYIYNREEY [HLA-DPB1_Y59_F64Y]
